The conditions of data set [1]: Blanc et al., 1997, cited from earlier work.
For data set [2] the following is noted: Blanc et al., 1997, cited from earlier work. The source holds these as a separate data set.
A short description of data set [3]: Enzymatic screening: simultaneous assay of the two methylation activities of PapM (ratio r). Format: biochemical, S. pristinaespiralis. The text has this: The ratio of the respective rates V1 and V2 of methylation of L-PAPA and of L-MMPAPA is dependent on the kinetic parameters of PapM (Km1 and Vmax1 for L-PAPA, Km2 and Vmax2 for L-MMPAPA), and is also dependent on the respective concentrations S1 and S2 of L-PAPA and of L-MMPAPA, according to the formula: V1/V2=(Vmax1//Km1)[S1]/(Vmax2/Km2)[S2]
Simultaneous measurement of the two rates of methylation V1 and V2 at fixed concentrations of S1 and S2 makes it possible to determine the ratio of the kinetic constants of PapM for L-PAPA and L-MMPAPA. This ratio is independent of the amount of PapM used in the assay. When the selectivity of the mutated PapM enzyme increases for L-PAPA, the ratio V1/V2 should increase and, conversely, this ratio should decrease when the mutated PapM enzyme preferentially methylates L-MMPAPA.
Finally, in order to avoid small variations in Km and to, on the contrary, promote either large variations in Km or modifications in the Vmax values, the concentrations of L-PAPA and L-MMPAPA are fixed at approximately 6 times the Km in order to be under conditions of saturation. Under such conditions, with the wild-type PapM enzyme, the rate of methylation 1 and the rate of methylation 2 are virtually equal.
The simultaneous assaying of the two methylation activities of PapM is described in example 7.1. This assaying of the methylase activities of PapM is carried out in the presence of 1.5 mM L-PAPA, 3 mM L-MMPAPA and […].
The 96-well plates of the library of E. coli clones producing the mutated PapM enzymes, prepared as described in example 3, are thawed at 23° C. Next, 25 μl of mixture A are added to the 200 μl of the culture on LB medium contained in each well. Mixture A is obtained by adding successively (1) 3 ml of 50 mM Bis-Tris-Propane buffer, pH 10, in which have been dissolved 12 mg of L-PAPA, and 71 mg of (DL)-MMPAPA in dihydrochloride form and prepared as described in WO 96/01901-A1, (2) 0.7 ml of 4 mM SAM in water, (3) 0.7 ml of [^14C-Me]-SAM at 25 μCi/ml and 60 mCi/mmol (AMERSHAM), (4) 0.6 ml of 100 mM Bis-Tris-Propane buffer, pH 6.8, and (5) 56 mg of the disodium salt of EDTA. The amounts are given for the preparation of a 5 ml volume of mixture A. The plate is then sealed with an adhesive film, and then incubated at 27° C. for 2 hours. The reaction is stopped with 40 μl of a stop solution. The stop solution (for a volume of 4 ml) is obtained by mixing 2.2 ml of a 24 mg/ml sodium heptanesulfonate solution in water with 1.8 ml of concentrated hydrochloric acid. After centrifugation of the plates at 3 000 g for 5 min, approximately 100 μl of the supernatant of each well are analyzed by HPLC in the system described in example 7.1.
For each well, the respective areas A1 and A2 of the MMPAPA and DMPAPA peaks derived from recording the radiochemical detection are integrated. A ratio r is then calculated in the following way: r=A1/(A1+A2) In the case of the wild-type PapM methylase, r=0.50±0.05.

Data set [4] in a line: Km and Vmax of purified PapM methylases, methylation 1. Format: biochemical, S. pristinaespiralis. As to the method:
(§1) The enzyme fractions to be assayed (1 to 20 units) are incubated for 30 min at 27° C. in a total volume of 200 μl of 50 mM bis-tris-propane buffer, pH 6.8, containing SAM (200 μM) the methyl group of which is radioactively labeled with the carbon 14 isotope (2 Ci/mol), in the presence of 4-amino-L-phenylalanine (1 mM) for assaying methylation 1, or of 4-methylamino-L-alanine (2.5 mM) for assaying methylation 2.
(§2) The reaction is stopped by adding 16 μl of 37% hydrochloric acid and then 20 μl of sodium heptanesulfonate at 240 g/l. After centrifugation, 150 μl of supernatant are injected into the HPLC system in the following gradient mode: • Mobile phase: Eluent A=1.2 g of heptanesulfonate+2.5 ml of glacial acetic acid+water (qs 1 000 ml). Eluent B=1.2 g of sodium heptanesulfonate+2.5 ml of glacial acetic acid+300 ml of acetonitrile+water (qs 1 000 ml). The gradient is produced in the following way: at t=0, 30% of eluent B; t=16 (min), 30% of eluent B; t=17 (min), 100% of eluent B; t=20 min, 100% of eluent B; t=21 min, 30% of eluent B; t=25 (min), 30% of eluent B. • Stationary phase: Nucleosil® C 18 5 μm×4.6 mm column (Macherey-Nagel)
(§3) On leaving the column, the substrates and products of the enzyme reaction are quantified by absorption at 254 nm. This detection is coupled to an on-line radiochemical detection using a Berthold LB506 detector equipped with a solid scintillation cell of the GT400-U4 type. This makes it possible to specifically follow the incorporation of radioactive methyl groups into the reaction products.
(§4) The unit of enzyme activity for methylation 1 (and also for methylation 2) is defined as the amount of enzyme required to incorporate 1 nmol of methyl group into 4-amino-L-phenylalanine (or into 4-methylamino-L-phenylalanine).
(§5) The conditions for assaying the methylation activity are identical to those described in example 7-1, with the exception of the 2 mM concentration of SAM, the methyl group of which is radioactively labeled with the carbon 14 isotope (2 Ci/mol). Concentration ranges varying from 0.1 to 60 mM for each of the substrates 4-amino-L-phenylalanine for methylation 1 and 4-methylamino-L-phenylalanine for methylation 2 are prepared. For each concentration of each substrate, the reaction rate is measured and expressed in nmol converted per hour and per mg of proteins.
(§6) The values of the kinetics constants are deduced from the Michaelis-Menten curves plotted using the Enzfiter software.

A short description of data set [5]: Ratios of kinetic constants and enzyme efficiencies, methylation 1 / methylation 2. Format: biochemical, S. pristinaespiralis. As to the method:
as §5, §6
For each mutant form of the enzyme, the enzyme efficiency of each methylation reaction (methylation 1 and methylation 2) was determined. This efficiency is defined by the ratio Vm1/Km1 (methylation 1) or Vm2/Km2 (methylation 2).
Then, for each form, the ratio of the enzyme efficiencies (methylation reaction 1/methylation reaction 2) was determined. This ratio is equal to Vm1.Km2/Vm2.Km1.

Data set [6] in a line: Km and Vmax of purified PapM methylases, methylation 2. Format: biochemical, S. pristinaespiralis. As to the method:
as §1, §2, §3, §4, §5, §6

Data set [7] can be described thus: Competition assay between the two substrates. Format: biochemical, S. pristinaespiralis. The note with it: both substrates present: 1 mM 4-amino-L-phenylalanine, 2 mM 4-methylamino-L-phenylalanine, 2 mM SAM. As to the method: The ratio of the rates of conversion of the two competitive substrates is given by the formula: V1/V2=(Kcat1/Km1)[S1]/(Kcat2/Km2)[S2]
The amount of substrate and of enzyme brought into play is thus avoided by taking care not to convert not more than 2% of each of the substrates.
Using the same conditions for assaying the methylation activity as those described in example 7-1, with the exception of the concentration of SAM, which is 2 mM, and the methyl group of which is radioactively labeled with the carbon 14 isotope (2.5 Ci/mol), and with the simultaneous presence of the two substrates at the concentrations, for 4-amino-L-phenylalanine, of 1 mM and, for 4-methylamino-L-phenylalanine, of 2 mM, the rate of each of the reactions could thus be determined.
The assays were carried out simultaneously on the mutants described in examples 4 to 6, using the same substrate solutions.

Where [8] appears, read: purified enzyme, 2 mM SAM, substrate 0.1 to 60 mM.

Read-outs that look alike come from different tables or passages of the source.

B1: 4-amino-L-phenylalanine (phenyl N)-methyltransferase (protein, UniProt P72542 1-292, looked up)
4-amino-L-phenylalanine/4-meth …: MTAAAPTLAQALDEATGQLTGAGITADAARADTRLLAAHACQVAPGDLDTCLAGPVPPRFWHYVRRRLTREPAERIVGHAYFMGHRFDLAPGVFVPKPETEEITRDAIARLEALVRRGTTAPLVVDLCAGPGTMAVTLARHVPAARVLGIELSQAAARAARRNARGTGARIVQGDARDAFPELSGTVDLVVTNPPYIPIGLRTSAPEVLEHDPPLALWAGEEGLGMIRAMERTAARLLAPGGVLLLEHGSYQLASVPALFRATGRWSHASSRPTCNDGCLTAVRNHTCAPPA
In general, Km refers to the substrate concentration at which the rate is half of its maximum. For the molecule B1, in data set [1], the “maximum velocity (Vmax) for L-PAPA” value was 55 μmol per hour and per mg of PapM. Moreover, the Km in data set [1] (read-out: Michaelis constant (Km) for L-PAPA) is 240 µM. For the same molecule, the “maximum velocity (Vmax) for L-MMPAPA” value in data set [2] is 71 μmol per hour and per mg of PapM. In data set [2] (read-out: Michaelis constant (Km) for L-MMPAPA), the Michaelis-Menten constant (Km) was 530 µM. The “Ratio (r redetermined)” value in data set [3] (7 sequenced clones, experiment in which wild-type ratio was 0.40) is given as 0.40. In data set [3] (after recloning of papM genes into pMTL23, E. coli DH5α, same experiment as wild-type), the “ratio of the two methylation activities (r)” value turned out to be 0.40. Further, the “ratio r=A1/(A1+A2) of MMPAPA and DMPAPA peak areas” value in data set [3] (screening of E. coli cultures, 1.5 mM L-PAPA, 3 mM L-MMPAPA) was 0.50±0.05. In addition, in data set [4] (Table 7), the Km1 was 0.5; the Vm1 is 112 600; the “Vm1/Km1 (enzyme efficiency, methylation 1)” value is given as 225 200. Moreover, the “Vm1 (PAPA)” value in data set [4] (purified enzyme, 2 mM SAM) is on record as 112 600 nmol/h/mg. In addition, the “Km1 (PAPA)” value in data set [4] (setting [8]) is given as 0.5 mM. In data set [5], the “ratio of the enzyme efficiencies (methylation reaction 1/methylation reaction 2), Vm1.Km2/Vm2.Km1” value was 1.1. Further, in data set [5] (Table 5), the “Ratio Km2/Km1” value was found to be 1.1 and the “Ratio Vm1/Vm2” value is on record as 0.99. The “Vm1 · Km2 / Vm2 · Km1 (ratio of enzyme efficiencies)” value in data set [5] (Table 7) was found to be 1.08. Further, in data set [6] (Table 7), the Km2 came out at 0.55; the Vm2 was 114 000; the “Vm2/Km2 (enzyme efficiency, methylation 2)” value is recorded as 207 270. Further, in data set [6] (purified enzyme, 2 mM SAM), the “Vm2 (MMPAPA)” value was 114 000 nmol/h/mg. Besides, in data set [6] (setting [8]), the “Km2 (MMPAPA)” value worked out at 0.55 mM. Moreover, the “first methylation reaction relative to the second (selectivity)” value in data set [7] is listed as “catalyzes the two reactions in a similar manner”.

These data come from patent publication US7604970B2, “Variants of the PapM polypeptide of bacteria of the Streptomyces genus” (Aventis Pharma S.A., priority 2002, dated 2009).
